Experimental data reported in publication PMC6473055, “ALCAM Mediates DC Migration Through Afferent Lymphatics and Promotes Allospecific Immune Reactions” (Frontiers in Immunology, 2019).

Target: T1, murine CD166(1-527)-His (mouse, UniProt Q61490 28-527)
T1 construct: signal peptide in the construct; ALCAM (CD166), mouse, residues 1-527 as printed; also called murine ALCAM; source: bought: Sino Biological, purified
T1 sequence (looked up): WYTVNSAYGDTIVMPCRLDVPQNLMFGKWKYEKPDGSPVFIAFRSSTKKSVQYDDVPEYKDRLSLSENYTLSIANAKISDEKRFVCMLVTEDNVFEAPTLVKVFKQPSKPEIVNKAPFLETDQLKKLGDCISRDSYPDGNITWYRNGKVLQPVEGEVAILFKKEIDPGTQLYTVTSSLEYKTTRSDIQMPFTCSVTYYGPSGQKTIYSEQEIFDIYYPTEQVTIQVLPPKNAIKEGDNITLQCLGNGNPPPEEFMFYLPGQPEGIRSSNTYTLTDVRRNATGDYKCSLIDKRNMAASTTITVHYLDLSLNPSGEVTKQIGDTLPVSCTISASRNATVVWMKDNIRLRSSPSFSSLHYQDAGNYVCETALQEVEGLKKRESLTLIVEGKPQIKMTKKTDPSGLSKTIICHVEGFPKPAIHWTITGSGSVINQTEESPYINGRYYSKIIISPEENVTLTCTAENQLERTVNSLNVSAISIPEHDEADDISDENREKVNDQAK
Test: ELISA; competition ELISA: plates coated overnight at 4°C with murine CD166(1-527)-His (5 μg/ml), blocked with PBS with 2% milk powder; 2 h at RT with a fixed amount of murine CD6-Fc (1 μg/ml) and I/F8-Fc or KSF-Fc in PBS (4 to 0.25 μg/ml); bound CD6-Fc detected with HRP-coupled anti-human IgG
Settings: both partners purified

binding result: binds
B1: murine CD6-Fc (Fc fusion, mouse, UniProt Q61003 17-398, looked up)
chain: GLPSPAPSGQHKNGTIPNMTLDLEERLGIRLVNGSSRCSGSVKVLLESWEPVCAAHWNRAATEAVCKALNCGDSGKVTYLMPPTSELPPGATSGNTSSAGNTTWARAPTERCRGANWQFCKVQDQECSSDRRLVWVTCAENQAVRLVDGSSRCAGRVEMLEHGEWGTVCDDTWDLQDAHVVCKQLKCGWAVKALAGLHFTPGQGPIHRDQVNCSGTEAYLWDCPGRPGDQYCGHKEDAGVVCSEHQSWRLTGGIDSCEGQVEVYFRGVWSTVCDSEWYPSEAKVLCRSLGCGSAVARPRGLPHSLDGRMYYSCKGQEPALSTCSWRFNNSNLCSQSRAARVVCSGSQRHLNLSTSEVPSRVPVTIESSVPVSVKDKDSQGLT
notes: CD6, mouse; source: bought: R&D Systems
